Source: the supplement of paper PMC9112550, “Optimization of the antimicrobial peptide Bac7 by deep mutational scanning” (BMC Biology, 2022)

Test system: Escherichia coli TOP10
Experiment: shrunken log2 fold change of peptide-encoding DNA abundance (4.5 h post-induction vs induction); higher = less antimicrobial activity (less host growth inhibition)
Conditions: time post-induction: 4.5 h; library: site-saturation at positions 5, 18, 19, 20
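Also: peptides expressed intracellularly from a pBAD plasmid library in pooled LB shake-flask culture, induced with 0.3% L-arabinose, DNA abundance read by NGS, three biological replicates, DESeq2 with apeglm shrinkage.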

RRIRKRPPRLPRPRPRPDKWPRP
shrunken log2 fold change: 0.429

RRIRVRPPRLPRPRPRPDRTPRP
shrunken log2 fold change: -0.252

RRIRTRPPRLPRPRPRPDEFPRP
shrunken log2 fold change: -0.00523

RRIRPRPPRLPRPRPRPAIPPRP
shrunken log2 fold change: -0.0146

RRIRGRPPRLPRPRPRPMPRPRP
shrunken log2 fold change: 1.03

RRIRIRPPRLPRPRPRPNWYPRP
shrunken log2 fold change: -0.519

RRIRERPPRLPRPRPRPKLMPRP
shrunken log2 fold change: 0.0215

RRIRQRPPRLPRPRPRPNNEPRP
shrunken log2 fold change: -0.885

RRIRNRPPRLPRPRPRPYCTPRP
shrunken log2 fold change: -0.169

RRIRFRPPRLPRPRPRPKDIPRP
shrunken log2 fold change: -0.676

RRIRNRPPRLPRPRPRPDSWPRP
shrunken log2 fold change: -0.125

RRIRPRPPRLPRPRPRPFPKPRP
shrunken log2 fold change: 0.166

RRIRCRPPRLPRPRPRPDMKPRP
shrunken log2 fold change: -0.996

RRIRWRPPRLPRPRPRPIYGPRP
shrunken log2 fold change: -0.0358

RRIRKRPPRLPRPRPRPSHDPRP
shrunken log2 fold change: -0.203

RRIRCRPPRLPRPRPRPRTFPRP
shrunken log2 fold change: -0.24

RRIRNRPPRLPRPRPRPDYKPRP
shrunken log2 fold change: 0.0574

RRIRERPPRLPRPRPRPSGCPRP
shrunken log2 fold change: 0.0787

RRIRMRPPRLPRPRPRPEREPRP
shrunken log2 fold change: 1.76

RRIRIRPPRLPRPRPRPEPDPRP
shrunken log2 fold change: -0.00501

RRIRLRPPRLPRPRPRPQVVPRP
shrunken log2 fold change: -0.252

RRIRTRPPRLPRPRPRPNGGPRP
shrunken log2 fold change: 0.033

RRIRYRPPRLPRPRPRPMKQPRP
shrunken log2 fold change: -0.0304

RRIRNRPPRLPRPRPRPLITPRP
shrunken log2 fold change: -0.173

RRIRLRPPRLPRPRPRPSPVPRP
shrunken log2 fold change: -0.186

RRIRNRPPRLPRPRPRPSMAPRP
shrunken log2 fold change: -0.139

RRIRDRPPRLPRPRPRPRPYPRP
shrunken log2 fold change: 0.018

RRIRNRPPRLPRPRPRPGRHPRP
shrunken log2 fold change: 0.00674

RRIRHRPPRLPRPRPRPGQLPRP
shrunken log2 fold change: 0.174

RRIRHRPPRLPRPRPRPQGNPRP
shrunken log2 fold change: -0.168

RRIRFRPPRLPRPRPRPVPAPRP
shrunken log2 fold change: 0.217

RRIRCRPPRLPRPRPRPRLEPRP
shrunken log2 fold change: 0.299

RRIRRRPPRLPRPRPRPEETPRP
shrunken log2 fold change: 0.244

RRIRCRPPRLPRPRPRPMYNPRP
shrunken log2 fold change: -0.535

RRIRPRPPRLPRPRPRPPNQPRP
shrunken log2 fold change: 0.282

RRIRERPPRLPRPRPRPDFYPRP
shrunken log2 fold change: -0.491

RRIRCRPPRLPRPRPRPHIDPRP
shrunken log2 fold change: -0.42

RRIRMRPPRLPRPRPRPDTEPRP
shrunken log2 fold change: 0.33

RRIRERPPRLPRPRPRPKPCPRP
shrunken log2 fold change: 0.133

RRIRVRPPRLPRPRPRPPNHPRP
shrunken log2 fold change: -0.0404

RRIRFRPPRLPRPRPRPHKKPRP
shrunken log2 fold change: -0.369

RRIRQRPPRLPRPRPRPIEIPRP
shrunken log2 fold change: -0.0062

RRIRVRPPRLPRPRPRPCCFPRP
shrunken log2 fold change: -0.00712

RRIRCRPPRLPRPRPRPSGAPRP
shrunken log2 fold change: 0.176

RRIRCRPPRLPRPRPRPVISPRP
shrunken log2 fold change: -0.154

RRIRRRPPRLPRPRPRPGHCPRP
shrunken log2 fold change: 0.0653

RRIRMRPPRLPRPRPRPLQFPRP
shrunken log2 fold change: 0.388

RRIRDRPPRLPRPRPRPMATPRP
shrunken log2 fold change: 0.415

RRIRARPPRLPRPRPRPSPIPRP
shrunken log2 fold change: -0.0445

RRIRSRPPRLPRPRPRPQEGPRP
shrunken log2 fold change: -0.0317

RRIRFRPPRLPRPRPRPPSYPRP
shrunken log2 fold change: -0.0274

RRIRPRPPRLPRPRPRPGVMPRP
shrunken log2 fold change: 0.0104

RRIRRRPPRLPRPRPRPGDIPRP
shrunken log2 fold change: 0.0886

RRIRQRPPRLPRPRPRPMNHPRP
shrunken log2 fold change: -0.337

RRIRMRPPRLPRPRPRPKSSPRP
shrunken log2 fold change: 0.763

RRIRFRPPRLPRPRPRPGDGPRP
shrunken log2 fold change: 0.264

RRIRTRPPRLPRPRPRPDNNPRP
shrunken log2 fold change: -0.48

RRIRDRPPRLPRPRPRPRTSPRP
shrunken log2 fold change: 0.353

RRIRMRPPRLPRPRPRPEWCPRP
shrunken log2 fold change: 0.234

RRIRFRPPRLPRPRPRPYMLPRP
shrunken log2 fold change: -0.61

RRIRYRPPRLPRPRPRPAIIPRP
shrunken log2 fold change: -0.244

RRIRARPPRLPRPRPRPGPQPRP
shrunken log2 fold change: 0.367

RRIRFRPPRLPRPRPRPAAVPRP
shrunken log2 fold change: 0.169

RRIRPRPPRLPRPRPRPPWIPRP
shrunken log2 fold change: -0.0483

RRIRVRPPRLPRPRPRPWQNPRP
shrunken log2 fold change: 0.013

RRIRHRPPRLPRPRPRPGKRPRP
shrunken log2 fold change: -0.0157

RRIRRRPPRLPRPRPRPNKIPRP
shrunken log2 fold change: 0.755

RRIRERPPRLPRPRPRPSDLPRP
shrunken log2 fold change: -0.151

RRIRERPPRLPRPRPRPTNEPRP
shrunken log2 fold change: -0.676

RRIRFRPPRLPRPRPRPITLPRP
shrunken log2 fold change: -0.274

RRIRNRPPRLPRPRPRPWFHPRP
shrunken log2 fold change: -0.179

RRIRRRPPRLPRPRPRPQVTPRP
shrunken log2 fold change: -0.0275

RRIRFRPPRLPRPRPRPPDKPRP
shrunken log2 fold change: 0.151

RRIRHRPPRLPRPRPRPDEMPRP
shrunken log2 fold change: 0.0307

RRIRLRPPRLPRPRPRPHSPPRP
shrunken log2 fold change: -0.252

RRIRWRPPRLPRPRPRPEGAPRP
shrunken log2 fold change: 1.13

RRIRKRPPRLPRPRPRPATDPRP
shrunken log2 fold change: 0.00132

RRIRVRPPRLPRPRPRPQHRPRP
shrunken log2 fold change: 0.0105

RRIRPRPPRLPRPRPRPYEQPRP
shrunken log2 fold change: -0.116

RRIRWRPPRLPRPRPRPTRAPRP
shrunken log2 fold change: 0.909

RRIRIRPPRLPRPRPRPFRTPRP
shrunken log2 fold change: -0.241

RRIRPRPPRLPRPRPRPNAHPRP
shrunken log2 fold change: 0.247

RRIRKRPPRLPRPRPRPLRDPRP
shrunken log2 fold change: 0.757

RRIRERPPRLPRPRPRPHNFPRP
shrunken log2 fold change: 0.0533

RRIRWRPPRLPRPRPRPYAFPRP
shrunken log2 fold change: 0.107

RRIRTRPPRLPRPRPRPQAWPRP
shrunken log2 fold change: 4.37

RRIRFRPPRLPRPRPRPAACPRP
shrunken log2 fold change: 0.0906

RRIRERPPRLPRPRPRPAPWPRP
shrunken log2 fold change: 0.203

RRIRDRPPRLPRPRPRPCRDPRP
shrunken log2 fold change: -0.106

RRIRLRPPRLPRPRPRPYKNPRP
shrunken log2 fold change: -0.631

RRIRVRPPRLPRPRPRPNAGPRP
shrunken log2 fold change: 0.0323

RRIRVRPPRLPRPRPRPFKQPRP
shrunken log2 fold change: -0.0195

RRIRVRPPRLPRPRPRPQMHPRP
shrunken log2 fold change: -0.175

RRIRWRPPRLPRPRPRPCVEPRP
shrunken log2 fold change: 0.153

RRIRVRPPRLPRPRPRPTWSPRP
shrunken log2 fold change: 0.0201

RRIRDRPPRLPRPRPRPPCGPRP
shrunken log2 fold change: 0.411

RRIRHRPPRLPRPRPRPKPCPRP
shrunken log2 fold change: -0.139

RRIRHRPPRLPRPRPRPYQMPRP
shrunken log2 fold change: -0.113

RRIRTRPPRLPRPRPRPNEGPRP
shrunken log2 fold change: -0.191

RRIRFRPPRLPRPRPRPVCGPRP
shrunken log2 fold change: 0.277

RRIRDRPPRLPRPRPRPTKLPRP
shrunken log2 fold change: 0.0975

RRIRFRPPRLPRPRPRPHVPPRP
shrunken log2 fold change: -0.315

RRIRHRPPRLPRPRPRPKAMPRP
shrunken log2 fold change: -0.0705

RRIRWRPPRLPRPRPRPDGEPRP
shrunken log2 fold change: 0.0237

RRIRYRPPRLPRPRPRPYRCPRP
shrunken log2 fold change: 0.0155

RRIRHRPPRLPRPRPRPIINPRP
shrunken log2 fold change: -0.324

RRIRWRPPRLPRPRPRPFPKPRP
shrunken log2 fold change: 0.0146

RRIRLRPPRLPRPRPRPECSPRP
shrunken log2 fold change: 0.177

RRIRKRPPRLPRPRPRPSNTPRP
shrunken log2 fold change: -0.231

RRIRNRPPRLPRPRPRPRHLPRP
shrunken log2 fold change: -0.337

RRIRFRPPRLPRPRPRPSIDPRP
shrunken log2 fold change: -0.433

RRIRYRPPRLPRPRPRPPDYPRP
shrunken log2 fold change: -2.1

RRIRARPPRLPRPRPRPPADPRP
shrunken log2 fold change: 1.42

RRIRNRPPRLPRPRPRPASDPRP
shrunken log2 fold change: 0.278

RRIRPRPPRLPRPRPRPAHEPRP
shrunken log2 fold change: 0.356

RRIRCRPPRLPRPRPRPQRSPRP
shrunken log2 fold change: 2.66

RRIRQRPPRLPRPRPRPHSVPRP
shrunken log2 fold change: -0.0178

RRIRSRPPRLPRPRPRPYWKPRP
shrunken log2 fold change: -0.144

RRIRYRPPRLPRPRPRPCCMPRP
shrunken log2 fold change: -0.356

RRIRIRPPRLPRPRPRPRTKPRP
shrunken log2 fold change: 0.161

RRIRCRPPRLPRPRPRPAKFPRP
shrunken log2 fold change: 0.154

RRIRHRPPRLPRPRPRPQQCPRP
shrunken log2 fold change: -0.0705

RRIRVRPPRLPRPRPRPFQDPRP
shrunken log2 fold change: -0.0723

RRIRKRPPRLPRPRPRPSYSPRP
shrunken log2 fold change: -0.413

RRIRYRPPRLPRPRPRPLFIPRP
shrunken log2 fold change: -0.683
